Entries after “also recorded” stand apart in the source; their conditions may differ.
How the values were obtained:
Hu-Axl-Fc = molecular target: T1, Hu-Axl-Fc (Homo sapiens, UniProt P30530); assay: Biacore competition binding c10G5 versus YW327.6S2-var (Example 21); conditions: 666.7 nM each, first and second sample
T1 construct: Fc
Method: Injections: • Use Flow Cell(s): 2 with 1 as reference • Flow Rate: 30 (μL/min) • Number of Injections: 2 • First Sample: • Injection Time: 3 (min) • Wait After Injection: 2.5 (min) • Second Sample: • Injection Time: 3 (min) • Wait After Injection: 2.5 (min)
The competitive binding analysis was performed by injecting a first sample (MAbs c10G5 or YW327.6S2-var) at a concentration sufficient to reach plateau within 1-2 min followed by injection of MAb YW327.6S2-var as a second sample (FIG. 21A).
In a second part of the of experiment, the antibody YW327.6S2-var was injected as a first sample followed by injection of either antibody YW327.6S2-var or c10G5 as a second sample (FIG. 21B).

[1] = molecular target: T2, Axl receptor protein in MBA-MD-231 cells (Homo sapiens, UniProt P30530); assay: Western blot of Axl receptor protein after antibody treatment; assay type: cell-based; conditions: 100 μg/mL, 20 hrs, versus irrelevant IgG or MAb #3
T2 construct: The expression of Axl receptor protein in MBA-MD-231 cells treated with different antibodies was examined by Western blot analysis; endogenous in cells; host or cells: MDA-MB-231 (printed 'MBA-MD-231') human breast carcinoma cells
Method: The expression of Axl receptor protein in MBA-MD-231 cells treated with different antibodies was examined by Western blot analysis. The cells were seeded in a 6-well plate at density of 5×10^5 cells per well and cultured overnight before treatment initiation. The cells were treated for 20 hrs in the presence of isotype control (mouse IgG2b), anti-Axl antibodies (10G5 and MAb #3) at concentrations of 100 μg/mL or multikinase inhibitor Foretinib (targets Met, Ron, Axl, Tie-2, and VEGFR2) at a concentration of 0.5 μM followed by harvesting by centrifugation at 1,200 rpm for 5 min and washing with sterile PBS. The cells were collected by centrifugation and resuspended in NP40-lysis buffer followed by 30 min incubation on ice. The cell lysates were cleared by centrifugation (12,000 rpm, 4° C., 5 min) and the protein concentrations were determined using BCA protein assay. The cell lysate samples comprising 35 μg of total protein were denatured in presence of the reducing agent (Life Technologies) and loaded into the wells of NuPAGE 10% Bis-Tris polyacrylamide (PAA) gel, 1.0 mm×12 well (Invitrogen). The electrophoresis was performed using Bis-Tris SDS running buffer under the recommended conditions (Life Technologies) and the proteins were transfer on PVDF membrane, as described for 2 gels in a manual for XCell II™ Blot Module (Invitrogen) using the transfer buffer with 20% methanol. […]

MDA-MB-231 cells = assay: Three-dimensional (3D) organotypic tumour mass model; assay type: cell-based, human
Method: A highly aggressive triple-negative human breast cancer cell line MDA-MB-231 (ATCC® HTB-26™) was cultured according to recommended conditions in Dulbecco's Modified Eagle's Medium/Nutrient Mixture F-12 Ham medium supplemented with 10% foetal bovine serum (FBS), glutamine and penicillin and streptomycin. The cells were pre-treated in suspension for at least 1 hour at 37° C., to ensure proper binding of antibodies on the cell surface before they were placed in extracellular matrix. The cells cultures were observed every day and fresh treatments were done every other day. The antibodies were used at concentrations 50-100 μg/mL. Imaging of coverslip 3D assay (35 mm dish) was done on a NIKON light microscopy using both Phase contrast and Hoffman optics. Already at day 3, difference in growth of cells treated with MAb10G5 and cells treated with a control irrelevant IgG was observed.
MDA-MB-231 cells were grown on extracellular matrix and allowed to form the highly aggressive stellate shaped morphology. Stellate-shaped tumour masses were then treated with the control IgG and antibody 10G5, as described in EXAMPLE 7.

[2] = molecular target: T3, rhAxl-Fc (binding of Gas6 / MAB154) (Homo sapiens, UniProt P30530); assay: Biacore competitive binding study, MAb 10G5 as first sample (Example 6); conditions: rhAxl-Fc saturated with 10G5 (160 nM), second sample 25 μg/mL
T3 construct: Fc
Method: A competitive binding study was performed using Biacore 3000 instrument (GE Healthcare) and Binding Analysis wizard with several cycles of two samples injection. As a first sample, a saturating concentration of MAb 10G5 (160 nM or 24 μg/mL) was injected over the surface of a CM5 sensor chip coated with rhAxl-Fc (using amine coupling) for 3 min at flow rate of 30 μL/min followed by 2.5 min stabilization (HBS-EP buffer alone) before the injection of the second sample. The following second samples were used: recombinant human (rh) Gas6 (R&D Systems, Cat. no. 885-GS), recombinant mouse (rm) Gas6 (R&D Systems, Cat. no. 986-GS/CF) and a panel of anti-Axl antibodies, such as MAB154 (R&D Systems, Cat. no. MAB154), and 10G5; all at concentration 25 μg/mL. The second sample was injected for 3 min, followed by 2.5 min stabilization (buffer alone) and regeneration of the surface by 30 sec injection of a regeneration solution (10 mM HCl, 1 M NaCl) at flow rate 50 μL/min.

- Competition between 10G5 and YW327.6S2 for binding to Axl (Hu-Axl-Fc): does not compete
B1: murine 10G5: mouse monoclonal anti-human Axl antibody from hybridoma WR-10G5-E5; VH SEQ ID NO: 28, VL SEQ ID NO: 29 (antibody, listed as Mus musculus, V domains shown)
VH: QVQLQQSGAELVRPGASVKLSCKASGYSFTDFYINWVRQRPGQGLEWIARIFPGGDNTYYNEKFKGKATLTAEESSSTAYIQLSSLTSEDSAVYFCARRGLYYAMDYWGQGISVTVSS
VL: DVLMTQTPLSLPVSLGDQASISCRSSQSLVHSNGIPYLHWYLQKPGQSPKLLIYRVSNRFSGVPDRFSGSGSGTDFTLKISRVEAEDLGVYFCSQGTHVPPTFGGGTKLEIK
modifications: (1)..(118) Mus musculus 10G5 VH domain; (1)..(112) Mus musculus 10G5 VL domain
- Axl receptor protein level [1]: significant reduction in the amount of Axl receptor protein
- Effect on established stellate-shaped 3D tumour masses (MDA-MB-231 cells; 9-days old organoid masses treated 72 hours, versus control IgG): caused degradation of stellate patterns
- Growth and tumour mass development in extracellular matrix (MDA-MB-231 cells; antibody 50-100 μg/mL, day 6, versus control IgG): significantly inhibited growth and tumour mass development
- Competition with MAB154 for Axl binding [2]: did no inhibit; also recorded: did not compete
- Inhibition of Gas6 (human and murine) binding to rhAxl [2]: cannot be bound; also recorded: inhibited

Source: patent publication US11732048B2, “Anti-axl antagonistic antibodies” (BERGEN TEKNOLOGIOVERFØRING AS, priority 2016, dated 2023)
